This note sets out measurements from publication doi:10.1101/2022.12.30.521597 (bioRxiv, 2022).

Common to all, as to test: split reporter
In experiment [1] the target is T1, CLuc-EXO70H1 (A. thaliana, UniProt Q8VY27 1-636).
T1 sequence: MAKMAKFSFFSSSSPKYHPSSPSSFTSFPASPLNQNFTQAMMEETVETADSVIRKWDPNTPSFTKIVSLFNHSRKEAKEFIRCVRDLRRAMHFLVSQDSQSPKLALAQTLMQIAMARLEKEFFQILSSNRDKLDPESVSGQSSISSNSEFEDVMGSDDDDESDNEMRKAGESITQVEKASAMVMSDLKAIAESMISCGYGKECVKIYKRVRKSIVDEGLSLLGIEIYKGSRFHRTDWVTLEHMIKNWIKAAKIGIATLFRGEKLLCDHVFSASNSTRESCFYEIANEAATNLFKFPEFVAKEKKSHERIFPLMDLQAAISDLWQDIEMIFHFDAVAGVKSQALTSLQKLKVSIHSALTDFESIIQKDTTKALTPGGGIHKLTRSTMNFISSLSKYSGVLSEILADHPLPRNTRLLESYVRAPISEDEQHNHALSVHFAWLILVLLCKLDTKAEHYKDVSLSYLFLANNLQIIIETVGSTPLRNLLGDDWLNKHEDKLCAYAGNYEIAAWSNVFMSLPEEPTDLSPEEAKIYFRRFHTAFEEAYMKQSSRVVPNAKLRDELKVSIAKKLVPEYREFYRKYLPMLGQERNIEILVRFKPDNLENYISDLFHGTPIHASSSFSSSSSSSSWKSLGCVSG

Experiment [2] deals with T1, CLuc-EXO70H1. The source holds these as a separate data set.
The target in experiment [3] is T2, CLuc-EXO70H4 (A. thaliana, UniProt Q9SF51 1-628).
T2 sequence: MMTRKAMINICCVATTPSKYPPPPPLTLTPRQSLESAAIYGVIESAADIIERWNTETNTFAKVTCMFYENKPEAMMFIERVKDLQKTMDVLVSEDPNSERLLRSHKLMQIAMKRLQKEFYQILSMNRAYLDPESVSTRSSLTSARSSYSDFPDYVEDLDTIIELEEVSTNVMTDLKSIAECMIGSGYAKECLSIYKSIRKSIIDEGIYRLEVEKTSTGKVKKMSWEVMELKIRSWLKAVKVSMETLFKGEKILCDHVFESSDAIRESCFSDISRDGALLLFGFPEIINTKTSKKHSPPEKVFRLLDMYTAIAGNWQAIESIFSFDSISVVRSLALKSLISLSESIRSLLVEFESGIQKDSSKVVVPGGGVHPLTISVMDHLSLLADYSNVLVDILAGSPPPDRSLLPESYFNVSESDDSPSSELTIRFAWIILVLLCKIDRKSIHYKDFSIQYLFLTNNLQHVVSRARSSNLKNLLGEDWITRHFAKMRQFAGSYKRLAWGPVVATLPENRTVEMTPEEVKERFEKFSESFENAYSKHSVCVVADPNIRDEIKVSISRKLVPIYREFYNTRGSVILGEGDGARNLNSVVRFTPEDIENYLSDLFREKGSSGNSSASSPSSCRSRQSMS

Another experiment has as its target T3, CLuc-EXO70H2 (A. thaliana, UniProt O80625 1-637).
T3 sequence: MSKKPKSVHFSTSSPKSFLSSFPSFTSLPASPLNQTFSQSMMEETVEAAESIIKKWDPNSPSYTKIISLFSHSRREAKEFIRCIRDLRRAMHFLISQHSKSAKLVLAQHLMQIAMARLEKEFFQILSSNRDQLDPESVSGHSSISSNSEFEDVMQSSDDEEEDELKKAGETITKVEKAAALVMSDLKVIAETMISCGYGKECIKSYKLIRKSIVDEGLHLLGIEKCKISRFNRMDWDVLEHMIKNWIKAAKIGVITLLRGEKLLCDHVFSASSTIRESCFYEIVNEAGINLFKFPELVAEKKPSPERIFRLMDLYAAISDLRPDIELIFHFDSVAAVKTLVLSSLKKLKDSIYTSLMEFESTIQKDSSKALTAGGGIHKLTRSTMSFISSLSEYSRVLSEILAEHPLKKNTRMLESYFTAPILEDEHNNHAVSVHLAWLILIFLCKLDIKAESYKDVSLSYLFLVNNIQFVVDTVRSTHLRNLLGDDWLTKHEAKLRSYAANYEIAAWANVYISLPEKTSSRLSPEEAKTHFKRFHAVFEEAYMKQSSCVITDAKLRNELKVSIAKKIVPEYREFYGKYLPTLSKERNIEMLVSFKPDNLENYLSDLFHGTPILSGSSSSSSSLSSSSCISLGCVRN

The target in experiment [4] is CLuc-EXO70H7 (A. thaliana). As to conditions: scale: relative to the calmodulin positive control.
Experiment [5] has as its target T2, CLuc-EXO70H4. The source holds these as a separate data set.
A further experiment addresses T4, CLuc-EXO70B2 (A. thaliana, UniProt Q9LMJ4 1-599).
T4 sequence: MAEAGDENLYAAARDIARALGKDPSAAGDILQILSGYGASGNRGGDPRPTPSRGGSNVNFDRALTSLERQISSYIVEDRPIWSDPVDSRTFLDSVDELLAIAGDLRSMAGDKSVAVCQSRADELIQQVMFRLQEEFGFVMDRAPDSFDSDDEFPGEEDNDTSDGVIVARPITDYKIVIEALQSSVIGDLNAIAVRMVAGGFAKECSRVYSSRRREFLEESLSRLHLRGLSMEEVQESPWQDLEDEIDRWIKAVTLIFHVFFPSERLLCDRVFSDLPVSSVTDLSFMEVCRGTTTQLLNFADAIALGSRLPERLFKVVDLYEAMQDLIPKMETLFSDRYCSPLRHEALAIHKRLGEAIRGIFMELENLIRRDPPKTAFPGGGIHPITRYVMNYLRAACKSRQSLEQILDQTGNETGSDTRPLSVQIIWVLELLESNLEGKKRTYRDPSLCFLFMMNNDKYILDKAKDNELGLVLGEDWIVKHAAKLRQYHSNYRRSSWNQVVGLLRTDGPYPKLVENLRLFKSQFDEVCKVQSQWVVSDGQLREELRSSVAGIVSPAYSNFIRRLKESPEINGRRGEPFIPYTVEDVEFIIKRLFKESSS

Where two headings read alike, the source gives them in different places. Bounds are passed on as bounds.

B1: MLO12-NLuc (natural protein)
chain: MAIKERSLEETPTWAVAVVCFVLLFISIMIEYFLHFIGHWFKKKHKKALSEALEKVKAELMLLGFISLLLVVLQTPVSEICIPRNIAATWHPCSNHQEIAKYGKDYIDDGRKILEDFDSNDFYSPRRNLATKGYDKCAEKGKVALVSAYGIHQLHIFIFVLAVFHVLYCIITYALGKTKMKKWKSWERETKTIEYQYANDPERFRFARDTSFGRRHLNIWSKSTFTLWITCFFRQFFGSVTKVDYLTLRHGFIMAHLPAGSAARFDFQKYIERSLEQDFTVVVGISPLIWCIAVLFILTNTHGWDSYLWLPFLPLIVILIVGAKLQMIISKLGLRIQEKGDVVKGAPVVEPGDDLFWFGRPRFILFLIHLVLFTNAFQLAFFVWSTYEFTLKNCFHHKTEDIAIRITMGVLIQVLCSYITLPLYALVTQMGTSMRPTIFNDRVANALKKWHHTAKKQTKHGHSGSNTPHSSRPTTPTHGMSPVHLLHNYNNRSLDQQTSFTASPSPPRFSDYSGQGHGHQHFFDPESQNHSYQREITDSEFSNSHHPQVDMASPVREEKEIVEHVKVDLSEFTFKK
In the case of B1, the relative luminescence with CLuc-EXO70H1 [1] is ~0.37 relative to the calmodulin positive control.

B2: MLO6-NLuc (natural protein)
chain: MADQVKEKTLEETSTWAVAVVCFVLLLISIVIEKLIHKIGSWFKKKNKKALYEALEKVKAELMLMGFISLLLTIGQGYISNICIPKNIAASMHPCSASEEARKYGKKDVPKEDEEENLRRKLLQLVDSLIPRRSLATKGYDKCAEKGKVAFVSAYGMHQLHIFIFVLAVCHVIYCIVTYALGKTKMRRWKKWEEETKTIEYQYSHDPERFRFARDTSFGRRHLSFWSKSTITLWIVCFFRQFFRSVTKVDYLTLRHGFIMAHLAPGSDARFDFRKYIQRSLEEDFKTIVEINPVIWFIAVLFLLTNTNGLNSYLWLPFIPFIVILIVGTKLQVIITKLGLRIQEKGDVVKGTPLVQPGDHFFWFGRPRFILFLIHLVLFTNAFQLAFFVWSTYEFGLKNCFHESRVDVIIRISIGLLVQILCSYVTLPLYALVTQMGSKMKPTVFNERVATALKSWHHTAKKNIKHGRTSESTTPFSSRPTTPTHGSSPIHLLRNAPHKRSRSVDESFANSFSPRNSDFDSWDPESQHETAETSNSNHRSRFGEEESEKKFVSSSVELPPGPGQIRTQHEISTISLRDFSFKR
Consider B2, for which the relative luminescence with CLuc-EXO70H1 [2] is > 0.24 relative to the calmodulin positive control; with CLuc-EXO70H4 [3], > 0.24 relative to the calmodulin positive control; with CLuc-EXO70H2, > 0.24 relative to the calmodulin positive control; in experiment [4] it was over 0.24; with CLuc-EXO70H4 [5], ~0.67 relative to the calmodulin positive control.

B3: MLO2-NLuc (natural protein)
chain: MADQVKERTLEETSTWAVAVVCFVLLFISIVLEHSIHKIGTWFKKKHKQALFEALEKVKAELMLLGFISLLLTIGQTPISNICISQKVASTMHPCSAAEEAKKYGKKDAGKKDDGDGDKPGRRLLLELAESYIHRRSLATKGYDKCAEKGKVAFVSAYGIHQLHIFIFVLAVVHVVYCIVTYAFGKIKMRTWKSWEEETKTIEYQYSNDPERFRFARDTSFGRRHLNFWSKTRVTLWIVCFFRQFFGSVTKVDYLALRHGFIMAHFAPGNESRFDFRKYIQRSLEKDFKTVVEISPVIWFVAVLFLLTNSYGLRSYLWLPFIPLVVILIVGTKLEVIITKLGLRIQEKGDVVRGAPVVQPGDDLFWFGKPRFILFLIHLVLFTNAFQLAFFAWSTYEFNLNNCFHESTADVVIRLVVGAVVQILCSYVTLPLYALVTQMGSKMKPTVFNDRVATALKKWHHTAKNETKHGRHSGSNTPFSSRPTTPTHGSSPIHLLHNFNNRSVENYPSSPSPRYSGHGHHEHQFWDPESQHQEAETSTHHSLAHESSEPVLASVELPPIRTSKSLRDFSFKK
For the molecule B3, the relative luminescence with CLuc-EXO70H1 [1] is ~0.39 relative to the calmodulin positive control; in the experiment with CLuc-EXO70B2 it was ~0.56 relative to the calmodulin positive control; with CLuc-EXO70H4 [5], ~0.4 relative to the calmodulin positive control.
